This passage reports radiometric kinase assay (CHKtide, [^32P]-γ-ATP) of immunoprecipitated full-length CHK2 with or without CaCl2 and CaM, IC50 of CaM (0-200 μM) for the kinase activity of immunoprecipitated full-length CHK2, radiometric assay, 1 mM CaCl2 and fold decrease in radiometric kinase assay of immunoprecipitated full-length CHK2 mutant with or without CaCl2 and CaM results from PMC12751073.

Assay [1] addresses FLAG-tagged full-length human CHK2, wildtype (immunoprecipitated) (human) (UniProt O96017).
Assay [2] shares this target. The source holds these as a separate data set.
Assay [3] has as its target FLAG-tagged full-length human CHK2 K245A (immunoprecipitated) (human) (UniProt O96017).

For “Calmodulin (recombinant, produced in-house) (from UniProt P0DP23 1-149) (natural protein)”, the radiometric kinase assay (CHKtide, [^32P]-γ-ATP) of immunoprecipitated full-length CHK2 with or without CaCl2 and CaM in assay [1] was determined as 10 fold. Further, the IC50 of CaM (0-200 μM) for the kinase activity of immunoprecipitated full-length CHK2, radiometric assay, 1 mM CaCl2 in assay [2] was 8.09 µM. This substance yielded a fold decrease in radiometric kinase assay of immunoprecipitated full-length CHK2 mutant with or without CaCl2 and CaM in assay [3] of 10 fold.
